According to paper PMC4432619, “The structure of FMNL2–Cdc42 yields insights into the mechanism of lamellipodia and filopodia formation” (Nature Communications, 2015):
One block for each binder: values may come before it.

B1: FMNL1NCC (1–458, Δ172–198) (domain or fragment, human, UniProt O95466 1-458, looked up)
chain: MGNAAGSAEQPAGPAAPPPKQPAPPKQPMPAAGELEERFNRALNCMNLPPDKVQLLSQYDNEKKWELICDQERFQVKNPPAAYIQKLKSYVDTGGVSRKVAADWMSNLGFKRRVQESTQVLRELETSLRTNHIGWVQEFLNEENRGLDVLLEYLAFAQCSVTYDMESTDNGSRHLTIKLTPAHSRKALRNSRIVSQKDDVHVCIMCLRAIMNYQSGFSLVMNHPACVNEIALSLNNKNPRTKALVLELLAAVCLVRGGHDIILAAFDNFKEVCGEQHRFEKLMEYFRNEDSNIDFMVACMQFINIVVHSVENMNFRVFLQYEFTHLGLDLYLERLRLTESDKLQVQIQAYLDNIFDVGALLEDTETKNAVLEHMEELQEQVALLTERLRDAENESMAKIAELEKQLSQARKELETLRERFSESTAMGPSRR
notes: also called FMNL1NCC(Δ172–198); FMNL1 (1–458, Δ172–198); source: E. coli, purified (GSH Sepharose, TEV cleavage, gel filtration); not shown: GST, N-terminal, cleaved

What was measured:
[1] = target: the molecule itself; experiment: crystal structure; complexes formed by equimolar mixing of the FMNL fragment with GppNHp-loaded Cdc42 (1–179) in high salt buffer and overnight dialysis at 277 K into 20 mM Tris/HCl pH 8.0, 150 mM NaCl, 5 mM MgCl2, 1 mM DTE; hanging drop vapour diffusion at 293 K
[2] = target: myrFMNL2N (myristoylated FMNL2N, residues 2–379) (human, UniProt Q96PY5 2-379, N-terminal myristoylation (myrFMNL2N)); experiment: ITC; Cdc42·GppNHp titrated to myrFMNL2N at liposomes; 25 °C; details: both partners purified
[3] = target: T1, FMNL2N(Δloop) (residues 1–379, Δaa 144–218) (human, UniProt Q96PY5 1-379, Δaa 144–218); experiment: ITC; GppNHp-loaded GTPase at 500 μM injected from the syringe into 50 μM FMNL in the cell; 20 mM Tris/HCl pH 8, 150 mM NaCl, 5 mM MgCl2, 1 mM DTE, 298 K; MicroCal iTC200; details: both partners purified
T1 construct: source: E. coli, purified (GSH Sepharose, TEV cleavage, gel filtration); not shown: GST, N-terminal, cleaved

[4] = target: B1; experiment: crystal structure; complexes formed by equimolar mixing of the FMNL fragment with GppNHp-loaded Cdc42 (1–179) in high salt buffer and overnight dialysis at 277 K into 20 mM Tris/HCl pH 8.0, 150 mM NaCl, 5 mM MgCl2, 1 mM DTE; hanging drop vapour diffusion at 293 K; details: both partners purified
[5] = target: the molecule itself; experiment: SEC; size exclusion chromatography of full-length recombinant FMNL1 from insect cells; data not shown

myrFMNL2N (myristoylated FMNL2N, residues 2–379), sequence (Q96PY5 2-379): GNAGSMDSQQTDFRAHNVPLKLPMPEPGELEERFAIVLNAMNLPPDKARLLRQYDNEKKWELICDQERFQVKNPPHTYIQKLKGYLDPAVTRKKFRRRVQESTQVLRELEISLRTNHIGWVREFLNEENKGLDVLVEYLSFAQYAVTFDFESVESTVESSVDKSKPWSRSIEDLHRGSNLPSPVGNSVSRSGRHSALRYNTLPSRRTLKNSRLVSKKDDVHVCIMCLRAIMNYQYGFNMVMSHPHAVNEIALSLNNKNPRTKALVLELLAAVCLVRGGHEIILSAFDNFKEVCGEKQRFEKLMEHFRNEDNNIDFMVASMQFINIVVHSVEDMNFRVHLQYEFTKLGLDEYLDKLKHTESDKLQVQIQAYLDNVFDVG
T1 sequence (Q96PY5 other isoform, or with tags, fused parts or gaps Δaa 144–218 | Δaa 144–218 | mutant): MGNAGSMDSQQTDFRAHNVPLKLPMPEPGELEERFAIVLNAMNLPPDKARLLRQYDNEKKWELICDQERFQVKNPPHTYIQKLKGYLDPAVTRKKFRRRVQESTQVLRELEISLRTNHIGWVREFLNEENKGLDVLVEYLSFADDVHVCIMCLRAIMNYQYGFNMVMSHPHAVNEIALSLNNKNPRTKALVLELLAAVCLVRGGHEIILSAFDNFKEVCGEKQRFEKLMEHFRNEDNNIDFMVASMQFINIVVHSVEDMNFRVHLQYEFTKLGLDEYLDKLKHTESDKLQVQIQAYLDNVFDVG

Binder: B1
- binding result [1]: binds

- Kd [2]: 1790 ± 760 nM
- dH [2]: -2.77 ± 0.29 kcal/mol
- stoichiometry N [2]: 0.93
- Kd [3]: 1340 ± 170 nM
- dH [3]: -2.39 ± 0.04 kcal/mol
- stoichiometry N [3]: 1
- binding result [4]: binds
B2: Cdc42 (1–179) (domain or fragment)
chain: not shown
notes: Loaded with the non-hydrolysable GTP analogue GppNHp and Mg2+ in all rows written here; also called Cdc42·GppNHp; active Cdc42; source: E. coli, GST fusion, purified; nucleotide exchanged for GppNHp

B3: Full-length, recombinant FMNL1 protein (natural protein, human, UniProt O95466 1-1100, looked up)
chain: MGNAAGSAEQPAGPAAPPPKQPAPPKQPMPAAGELEERFNRALNCMNLPPDKVQLLSQYDNEKKWELICDQERFQVKNPPAAYIQKLKSYVDTGGVSRKVAADWMSNLGFKRRVQESTQVLRELETSLRTNHIGWVQEFLNEENRGLDVLLEYLAFAQCSVTYDMESTDNGASNSEKNKPLEQSVEDLSKGPPSSVPKSRHLTIKLTPAHSRKALRNSRIVSQKDDVHVCIMCLRAIMNYQSGFSLVMNHPACVNEIALSLNNKNPRTKALVLELLAAVCLVRGGHDIILAAFDNFKEVCGEQHRFEKLMEYFRNEDSNIDFMVACMQFINIVVHSVENMNFRVFLQYEFTHLGLDLYLERLRLTESDKLQVQIQAYLDNIFDVGALLEDTETKNAVLEHMEELQEQVALLTERLRDAENESMAKIAELEKQLSQARKELETLRERFSESTAMGPSRRPPEPEKAPPAAPTRPSALELKVEELEEKGLIRILRGPGDAVSIEILPVAVATPSGGDAPTPGVPTGSPSPDLAPAAEPAPGAAPPPPPPLPGLPSPQEAPPSAPPQAPPLPGSPEPPPAPPLPGDLPPPPPPPPPPPGTDGPVPPPPPPPPPPPGGPPDALGRRDSELGPGVKAKKPIQTKFRMPLLNWVALKPSQITGTVFTELNDEKVLQELDMSDFEEQFKTKSQGPSLDLSALKSKAAQKAPSKATLIEANRAKNLAITLRKGNLGAERICQAIEAYDLQALGLDFLELLMRFLPTEYERSLITRFEREQRPMEELSEEDRFMLCFSRIPRLPERMTTLTFLGNFPDTAQLLMPQLNAIIAASMSIKSSDKLRQILEIVLAFGNYMNSSKRGAAYGFRLQSLDALLEMKSTDRKQTLLHYLVKVIAEKYPQLTGFHSDLHFLDKAGSVSLDSVLADVRSLQRGLELTQREFVRQDDCMVLKEFLRANSPTMDKLLADSKTAQEAFESVVEYFGENPKTTSPGLFFSLFSRFIKAYKKAEQEVEQWKKEAAAQEAGADTPGKGEPPAPKSPPKARRPQMDLISELKRRQQKEPLIYESDRDGAIEDIITVIKTVPFTARTGKRTSRLLCEASLGEEMPL
notes: also called full-length FMNL1; source: expressed from insect cells
- stoichiometry N [5]: 2
